Measured values as given in article PMC8024369.
Values joined by “and” are separate entries in the source; they are usually repeats but may differ in a detail not shown here. Equal values may be shown once.

Columns and labels:
[1] = target: rationally optimised SUWA (N22E/H86K mutant of SUWA, super WA20); assay: SEC-MALS; Superdex 75 Increase 10/300 GL, 20 °C, 20 mM HEPES pH 7.5, 150 mM NaCl, 5% glycerol; oligomeric number from the mass of each peak and the theoretical mass of the monomer
[2] = target: rationally optimised WA20 (N22A/H86K mutant of the de novo protein WA20); assay: as above

Substance	mass fraction of peak (i), dimer [1]	mass fraction of peak (ii), tetramer [1]	mass fraction of peak (iii), hexamer [1]	mass fraction of peak (iv), higher oligomers [1]	mass fraction of peak (i), dimer [2]	mass fraction of peak (ii), tetramer [2]	mass fraction of peak (iii), hexamer [2]	stoichiometry N [2]
rationally optimised SUWA (N22E/H86K mutant of SUWA, super WA20)	64%	18%	7%	11%				
rationally optimised WA20 (N22A/H86K mutant of the de novo protein WA20)					77%	21%	2%	2 mer and 4 mer and 6 mer
